The text below walks through data of patent US20230183793.

Read-outs that look alike come from different tables or passages of the source.

Data set [1] addresses T1, Dcm N436K (Escherichia coli) (UniProt P0AED9).
T1 sequence: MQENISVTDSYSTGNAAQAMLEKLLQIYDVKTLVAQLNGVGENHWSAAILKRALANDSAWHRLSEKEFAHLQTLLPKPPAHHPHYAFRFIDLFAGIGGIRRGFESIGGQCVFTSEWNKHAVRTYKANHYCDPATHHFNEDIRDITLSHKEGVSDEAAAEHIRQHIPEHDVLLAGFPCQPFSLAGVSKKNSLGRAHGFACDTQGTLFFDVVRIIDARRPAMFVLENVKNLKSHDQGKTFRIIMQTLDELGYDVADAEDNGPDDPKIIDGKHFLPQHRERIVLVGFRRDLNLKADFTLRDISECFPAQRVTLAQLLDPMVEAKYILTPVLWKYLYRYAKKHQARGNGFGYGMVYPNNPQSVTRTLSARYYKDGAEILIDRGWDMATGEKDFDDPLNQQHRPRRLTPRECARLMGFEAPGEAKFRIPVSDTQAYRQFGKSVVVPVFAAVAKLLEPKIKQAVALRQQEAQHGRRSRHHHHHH
The data set can be described thus: cell_activity. The conditions noted are these: CCWGG sites carboxymethylated; also makes 5mC.

In data set [2] the test system is M.MpeI N374K (Mycoplasma penetrans). The conditions noted are these: CpGs converted to 5cxmC with CxSAM; ~60% 5mC with SAM; bisulfite sequencing.
Data set [3] relates to M.MpeI WT K374N (reversion to wild type) (Mycoplasma penetrans). As to conditions: CpGs modified with SAM; no transfer with CxSAM.
Data set [4] relates to M.MpeI N374K (Mycoplasma penetrans). The conditions noted are these: CpGs modified with SAM or CxSAM, bisulfite sequencing.
Data set [5] shares this test system. The conditions noted are these: 5mC on one strand of CpG; CxSAM preferred over SAM 1.3-fold; HpaII protection assay.

In data set [1], E. coli genomic DNA (dam-/dcm-) came in with an activity of over 1.5%. For lambda phage genomic DNA, unmethylated, in data set [2], the activity stood at 50%.

As to pUC19 plasmid DNA, the values for the activity in data set [3] and in data set [4] were 100% and over 70%, respectively.

In data set [5], “hemimethylated CpG fluorophore-labelled oligonucleotide” came in with a binding signal of 1.3 fold.
